Measurements published in patent publication US20210059142.

Assays:
Test in all cases: cell_activity
[1] = system: FucT1_T01 TAL effector endonuclease, right monomer (engineered); details: yeast beta-gal assay of the pair 37 C; 0.6 at 30 C
[2] = system: XylT_T03 TAL effector endonuclease, right monomer (engineered); details: yeast beta-gal assay of the pair 37 C; 0.7 at 30 C; protoplast NHEJ 34.4% XylT1, 28.2% XylT2 (Table 3)
[3] = system: XylT_T04 TAL effector endonuclease, right monomer (engineered); details: yeast beta-gal assay of the pair 37 C; 0.9 at 30 C; protoplast NHEJ 73.8% XylT1, 63.9% XylT2 (Table 3)
[4] = system: FucT1_T02 TAL effector endonuclease, right monomer (engineered); details: yeast beta-gal assay of the pair 37 C; 0.7 at 30 C; protoplast NHEJ 39.2% FucT1, 24.7% FucT2 (Table 3)
[5] = system: FucT2_T02 TAL effector endonuclease, right monomer (engineered); details: yeast beta-gal assay of the pair 37 C; 0.7 at 30 C; protoplast NHEJ 46.5% FucT1, 45.0% FucT2 (Table 3)
[6] = system: FucT2_T01 TAL effector endonuclease, right monomer (engineered); details: yeast beta-gal assay of the pair 37 C; 0.8 at 30 C
[7] = system: XylT_T04 TAL effector endonuclease, left monomer (engineered); details: yeast beta-gal assay of the pair 37 C; 0.9 at 30 C; protoplast NHEJ 73.8% XylT1, 63.9% XylT2 (Table 3)
[8] = system: FucT1_T01 TAL effector endonuclease, left monomer (engineered); details: yeast beta-gal assay of the pair 37 C; 0.6 at 30 C
[9] = system: FucT2_T01 TAL effector endonuclease, left monomer (engineered); details: yeast beta-gal assay of the pair 37 C; 0.8 at 30 C
[10] = system: FucT2_T02 TAL effector endonuclease, left monomer (engineered)
[11] = system: FucT1_T02 TAL effector endonuclease, left monomer (engineered)
[12] = system: XylT_T03 TAL effector endonuclease, left monomer (engineered); details: yeast beta-gal assay of the pair 37 C; 0.7 at 30 C; protoplast NHEJ 34.4% XylT1, 28.2% XylT2 (Table 3)
[13] = system: FucT_T04 TAL effector endonuclease, left monomer (engineered); details: yeast beta-gal assay of the pair 37 C; 0.5 at 30 C; same with FucT1 and FucT2 spacers
[14] = system: FucT_T04 TAL effector endonuclease, right monomer (engineered); details: yeast beta-gal assay of the pair 37 C; 0.5 at 30 C; same with FucT1 and FucT2 spacers

Question: With “AATAAGCAATGGCGCAA (double strand) [FucT1_T01 target sequence 2]” as the sequence, how does the activity (relative to I-SceI) [1] read?
Answer: Its activity (relative to I-SceI) is 0.8.

Question: “ATCACTCTCTATCTCTA (double strand) [XylT_T03 target sequence 2]” was tested. Which activity (relative to I-SceI) [2] did it give?
Answer: Its activity (relative to I-SceI) is 0.9.

Question: “CTCTACTTCTCTTCCCA (double strand) [XylT_T04 target sequence 2]” was tested. Which activity (relative to I-SceI) [3] did it give?
Answer: Its activity (relative to I-SceI) is 0.9.

Question: Which results are given for “CTCTGTTCGTTGCCCTA (double strand) [FucT_T02 target sequence 2]”?
Answer: activity (relative to I-SceI) [4]: 0.9; activity (relative to I-SceI) [5]: 0.9

Question: “GATAAACAATGGCGCAA (double strand) [FucT2_T01 target sequence 2]” was tested. Which activity (relative to I-SceI) [6] did it give?
Answer: Its activity (relative to I-SceI) is 0.9.

Question: “TCTCTTCGCTCTCAACT (double strand) [XylT_T04 target sequence 1]” was tested. Which activity (relative to I-SceI) [7] did it give?
Answer: The activity (relative to I-SceI) was 0.9.

Question: With “TGAGATCGGCGTCAAAT (double strand) [FucT1_T01 target sequence 1]” as the sequence, how does the activity (relative to I-SceI) [8] read?
Answer: The activity (relative to I-SceI) was 0.8.

Question: Which activity (relative to I-SceI) [9] does the source give for “TGAGATCGTCGTCAAAT (double strand) [FucT2_T01 target sequence 1]” here?
Answer: The activity (relative to I-SceI) was 0.9.

Question: What does the source list for “TTCAAACGCACCCAATA (double strand) [FucT1_T02 target sequence 1]”?
Answer: activity ([10]; pair at endogenous FucT1, 1-bp polymorphism in half-site, N. benthamiana protoplasts, control 0.79%): 46.5 % NHEJ; activity (relative to I-SceI) ([11]; yeast beta-gal assay of the pair 37 C, 0.7 at 30 C, protoplast NHEJ 39.2% at FucT1 (Table 3)): 0.9

Question: “TTCAAACGCACCCGATA (double strand) [FucT2_T02 target sequence 1]” was tested. Which activity (relative to I-SceI) ([10]; yeast beta-gal assay of the pair 37 C, 0.7 at 30 C, protoplast NHEJ 45.0% at FucT2 (Table 3)) did it give?
Answer: The activity (relative to I-SceI) was 0.9.

Question: And the activity ([11]; pair at endogenous FucT2, 1-bp polymorphism in half-site, N. benthamiana protoplasts, control 0.14%)?
Answer: Its activity is 24.7 % NHEJ.

Question: For “TTCTTGTTTCTCTCTTC (double strand) [XylT_T03 target sequence 1]”, which activity (relative to I-SceI) [12] is on record?
Answer: Its activity (relative to I-SceI) is 0.9.

Question: For “TTGCCTCTGTTCGTTGC (double strand) [FucT_T04 target sequence 1]”, which activity (relative to I-SceI) [13] is on record?
Answer: The activity (relative to I-SceI) was 0.6.

Question: With “TTTCTGGTTCGACTCGA (double strand) [FucT_T04 target sequence 2]” as the sequence, how does the activity (relative to I-SceI) [14] read?
Answer: The activity (relative to I-SceI) was 0.6.
